How the values were obtained:
[1] = target: recombinant human Thrombomodulin (soluble truncated form that lacks the putative transmembrane and the cytoplasmic domains, approximate weight 68 kD; American Diagnostica Inc.) (UniProt P07204)
[2] = tested on: PEG-TMB (TMB conjugated at the C-terminal azido-methionine analog to methyl-PEG-triarylphosphine conjugate 2 by Staudinger ligation)
[3] = tested on: TMA (truncated human thrombomodulin EGF-like domains 4-6, Met-388-Leu, C-terminal GlyGlyMet linker, expressed as an N-terminal Dsba enzyme fusion with leader sequence)
[4] = tested on: TMB (truncated human thrombomodulin derivative, EGF-like domains 4-6, Met-388-Leu, C-terminal GlyGlyMet linker with azido-methionine analog)

Sequence of recombinant human Thrombomodulin (soluble truncated form that lacks the putative transmembrane and the cytoplasmic domains, approximate weight 68 kD; American Diagnostica Inc.) (P07204 whole entry, looked up, the tested form may be a part): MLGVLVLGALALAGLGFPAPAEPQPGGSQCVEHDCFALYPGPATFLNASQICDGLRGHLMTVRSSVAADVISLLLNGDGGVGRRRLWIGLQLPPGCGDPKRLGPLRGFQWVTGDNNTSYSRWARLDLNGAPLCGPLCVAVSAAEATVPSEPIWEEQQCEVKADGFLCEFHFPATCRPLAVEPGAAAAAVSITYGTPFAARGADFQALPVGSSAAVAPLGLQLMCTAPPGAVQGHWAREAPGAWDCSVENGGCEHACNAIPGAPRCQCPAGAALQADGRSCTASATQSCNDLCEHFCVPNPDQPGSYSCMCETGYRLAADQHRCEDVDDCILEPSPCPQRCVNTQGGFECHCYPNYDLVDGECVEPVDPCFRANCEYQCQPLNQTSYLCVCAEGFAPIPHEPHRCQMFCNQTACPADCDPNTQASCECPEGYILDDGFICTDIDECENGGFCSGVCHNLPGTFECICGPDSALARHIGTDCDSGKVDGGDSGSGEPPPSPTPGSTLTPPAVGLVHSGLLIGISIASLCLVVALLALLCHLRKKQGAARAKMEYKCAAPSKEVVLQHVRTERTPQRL

human alpha thrombin (Haematologic Technologies Inc.)
KM (µM) for protein C activation by the TM-thrombin complex [1]: 0.7 µM
kcat (min^-1) for protein C activation by the TM-thrombin complex [1]: 0.14 min⁻¹
kcat/KM (min^-1 · µM^-1) for protein C activation by the TM-thrombin complex (min^-1 · µM^-1) [1]: 0.21
KM (µM) for protein C activation by the TM-thrombin complex [2]: 1 µM
kcat (min^-1) for protein C activation by the TM-thrombin complex [2]: 0.2 min⁻¹
kcat/KM (min^-1 · µM^-1) for protein C activation by the TM-thrombin complex (min^-1 · µM^-1) [2]: 0.2
KM (µM) for protein C activation by the TM-thrombin complex [3]: 0.9 µM
kcat (min^-1) for protein C activation by the TM-thrombin complex [3]: 0.22 min⁻¹
kcat/KM (min^-1 · µM^-1) for protein C activation by the TM-thrombin complex (min^-1 · µM^-1) [3]: 0.26
KM (µM) for protein C activation by the TM-thrombin complex [4]: 1 µM
kcat (min^-1) for protein C activation by the TM-thrombin complex [4]: 0.16 min⁻¹
kcat/KM (min^-1 · µM^-1) for protein C activation by the TM-thrombin complex (min^-1 · µM^-1) [4]: 0.16

Reference: patent publication US20080051562
